Data reported in PMC5859912 (ACS Chemical Biology, 2018).

Columns and labels:
[1] = molecular target: PCY1:S562A (Saponaria vaccaria) (UniProt R4P353); experiment: ITC
[2] = system: PCY1; assay type: biochemical, Saponaria vaccaria; conditions: LC/MS (ion count); 30 °C; pH 8.5
[3] = molecular target: T1, PCY1:S562A (Saponaria vaccaria, UniProt R4P353 1-724, S562A); experiment: ITC
T1 sequence: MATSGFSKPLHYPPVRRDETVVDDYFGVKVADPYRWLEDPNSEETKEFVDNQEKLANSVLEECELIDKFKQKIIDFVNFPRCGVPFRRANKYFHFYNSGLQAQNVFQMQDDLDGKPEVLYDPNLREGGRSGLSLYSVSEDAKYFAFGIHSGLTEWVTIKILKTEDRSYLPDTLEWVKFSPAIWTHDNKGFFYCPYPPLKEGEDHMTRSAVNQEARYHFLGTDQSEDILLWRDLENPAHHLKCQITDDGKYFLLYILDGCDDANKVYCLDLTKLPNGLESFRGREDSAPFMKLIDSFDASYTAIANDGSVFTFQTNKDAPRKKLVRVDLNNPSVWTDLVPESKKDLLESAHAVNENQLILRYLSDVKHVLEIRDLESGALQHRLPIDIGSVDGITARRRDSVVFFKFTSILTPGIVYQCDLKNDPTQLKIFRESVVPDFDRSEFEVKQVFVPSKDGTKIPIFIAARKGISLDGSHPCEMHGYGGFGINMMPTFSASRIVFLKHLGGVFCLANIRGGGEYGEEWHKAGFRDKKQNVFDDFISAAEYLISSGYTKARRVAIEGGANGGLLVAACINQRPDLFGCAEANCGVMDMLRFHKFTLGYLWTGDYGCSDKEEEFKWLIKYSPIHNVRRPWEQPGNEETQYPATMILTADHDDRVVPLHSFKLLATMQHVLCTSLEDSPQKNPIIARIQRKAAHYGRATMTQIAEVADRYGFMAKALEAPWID

presegetalin A1 (peptide)
Kd [1]: 173 nM

presegetalin F1 (peptide)
Kd [1]: 136 nM

presegetalin B1 (peptide)
Kd [1]: 238 nM

FSASYSSKP FQA
kcat/Km [2]: 1200 s^–1 M^–1

presegetalin D1 (peptide)
Kd [1]: 250 nM

DNASAPV
Kd [3]: 9580 ± 580 nM
